B1: RNA polymerase sigma factor RpoD (Pseudomonas aeruginosa (strain ATCC 15692 / PAO1 / 1C / PRS 101 / LMG 12228)), P26480 (parent)
chain: MSGKAQQQSRLKELIARGREQGYLTYAEVNDHLPEDISDPEQVEDIIRMINDMGINVFETAPDADALLLAEADTDEAAAEEAAAALAAVESDIGRTTDPVRMYMREMGTVELLTREGEIEIAKRIEEGIREVMSAIAQFPGTVDSILADYNRIVAEGGRLSDVLSGYIDPDDGSLPAEEVEPVNLKDDSADSKEKDDEEEESDDSSDSDDEGDGGPDPEEARLRFTAVSEQLDKAKKALKKHGRGSKQATAELTGLAELFMPIKLVPKQFDALVARVRSALEGVRAQERAIMQLCVRDARMPRADFLRLFPNHETDEKWVDSVLKSKPKYAEAIERLRDDILRNQQKLAALESEVELTVAEIKEINRAMSIGEAKARRAKKEMVEANLRLVISIAKKYTNRGLQFLDLIQEGNIGLMKAVDKFEYRRGYKFSTYATWWIRQAITRSIADQARTIRIPVHMIETINKLNRISRQMLQEMGREPTPEELGERMDMPEDKIRKVLKIAKEPISMETPIGDDEDSHLGDFIEDSTMQSPIEMATSESLKESTREVLAGLTAREAKVLRMRFGIDMNTDHTLEEVGKQFDVTRERIRQIEAKALRKLRHPSRSEHLRSFLDE
partner: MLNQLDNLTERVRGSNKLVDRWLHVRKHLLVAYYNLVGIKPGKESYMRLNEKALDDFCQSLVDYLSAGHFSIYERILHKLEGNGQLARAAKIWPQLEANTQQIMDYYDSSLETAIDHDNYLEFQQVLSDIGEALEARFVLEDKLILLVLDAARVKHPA
B2: RNA polymerase sigma factor RpoD (Pseudomonas aeruginosa (strain ATCC 15692 / PAO1 / 1C / PRS 101 / LMG 12228)), P26480 (parent)
chain: B1 chain
partner: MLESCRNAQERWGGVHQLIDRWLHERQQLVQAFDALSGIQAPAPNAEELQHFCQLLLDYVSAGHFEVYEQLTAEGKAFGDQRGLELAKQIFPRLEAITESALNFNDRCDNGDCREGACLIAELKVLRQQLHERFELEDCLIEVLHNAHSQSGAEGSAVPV
B3: RNA polymerase sigma factor RpoD (Pseudomonas aeruginosa (strain ATCC 15692 / PAO1 / 1C / PRS 101 / LMG 12228)), P26480 (parent)
chain: B1 chain
partner: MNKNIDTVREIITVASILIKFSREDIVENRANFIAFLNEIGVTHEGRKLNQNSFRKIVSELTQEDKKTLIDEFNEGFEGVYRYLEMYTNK

Variants of: B1
Settings: with rsd_ecoli rsd
With R600H the “effect of a mutation on the interaction” value was “decreasing interaction”.

Variants of: B2
Settings: with algq_pseae algQ
With R600H the “effect of a mutation on the interaction” value was “decreasing interaction”.

Variants of: B3
Settings: with asia_bpt4 asiA
For R600H, the “effect of a mutation on the interaction” value was “decreasing interaction”.
